Test results as given in US10323078B2, “Isolated peptides and fragments thereof from fibrinogen for use as drugs, particularly in skin inflammatory diseases” (Universite Paris Descartes, priority 2015, dated 2019).

What was measured:
Assay type in all cases: cell-based, human
HaCaT cells = assay: O2°− production by P. acnes-stimulated HaCaT (spectrofluorimetry, DHE); settings: bacteria first pretreated, 0.87 to 7 μM
Experimental: FIG. 14: Dose-dependent inhibition of O2^∘− production by keratinocytes stimulated by P. acnes pre-treated by recombinant peptide. HaCaT cell were incubated for 18 h with P. acnes PIE strain at a concentration adjusted to 0.2 of absorbance at 600 nm (blue bar) and with P. acnes pretreated with recombinant peptide Fg1 (light gray bar) and Fg2 (dark gray bar). Measurement of superoxide anion production was realized by spectrofluorometry as described in Materials and Methods. Control experiment was done on unstimulated HaCaT cell (red bar). Data are means±S.D. of three separate experiments. Statistical significance is indicated by * (P<0.05), ** (P<0.01), *** (P<0.001), and **** (P<0.0001), respectively.
(§1) For experiences of stimulation with P. acnes, cells were incubated with the P. acnes suspension adjusted at the appropriate concentration, pre-treated for 1 h at 37° C. or not with fibrinogen recombinant peptides Fg1 and Fg2 at the concentrations 0.87, 1.75, 3.5 or 7 μM for the desired period of time at 37° C. in 5% CO2.
All cells lines (5·10^4 to 10^5 cells/well) were seeded in 96-well plates (Corning Costar, Brumath, France) and treated as previously described. After stimulation, cells were washed three times in PBS and incubated with 100 μl per wells of 5 μM DHE (for determination of O2^●−) or 5 μM H2-DCFDA (for determination of H2O2) for 30 min as described previously and fluorescence intensity was recorded every hour over a period of 5 h. Fluorescence excitation/emission maxima were for DHE: 480/610 nm and for H2-DCFDA: 507/525 nm. At the end of the experiment, the number of adherent cells was evaluated by the crystal violet assay as described below. […] Levels of ROS were calculated in each sample as follows: reactive oxygen species rate (arbitrary units/min/10^6 cells)=(fluorescence intensity [arbitrary units] at T5h—fluorescence intensity [arbitrary units] at To/300 minutes/number of adherent cells as measured by the crystal violet assay, and were expressed as arbitrary unit (A.U.). […]

MRC5 cells [1] = assay: O2°− production by P. acnes-stimulated MRC5; settings: bacteria first pretreated, 0.87 to 7 μM
Experimental: as §1
All cells lines (5·10^4 to 10^5 cells/well) were seeded in 96-well plates (Corning Costar, Brumath, France) and treated as previously described. After stimulation, cells were washed three times in PBS and incubated with 100 μl per wells of 5 μM DHE (for determination of O2^●−) or 5 μM H2-DCFDA (for determination of H2O2) for 30 min as described previously and fluorescence intensity was recorded every hour over a period of 5 h. Fluorescence excitation/emission maxima were for DHE: 480/610 nm and for H2-DCFDA: 507/525 nm. At the end of the experiment, the number of adherent cells was evaluated by the crystal violet assay as described below. O2^●−, and H2O2 were assayed by spectrofluorimetry on a Fusion spectrofluorimeter (PackardBell, Paris, France). Levels of ROS were calculated in each sample as follows: reactive oxygen species rate (arbitrary units/min/10^6 cells)=(fluorescence intensity [arbitrary units] at T5h—fluorescence intensity [arbitrary units] at To/300 minutes/number of adherent cells as measured by the crystal violet assay, and were expressed as arbitrary unit (A.U.).
To assess the efficacy of Fg1 recombinant peptide, the production of O2^∘− and H2O2 by HaCaT cells NHDK, THP-1, MRC5 and HDF stimulated by pretreated P. acnes strains 6919, RON and PIE was measured. The amount of ROS produced was compared to that produced by the stimulated cells with untreated bacteria. Production baseline was obtained by measuring ROS on unstimulated cells. The production of IL-1ß, IL-8, IL-12 and TNF-α was also measured in all conditions cited above. The measurement of the production of ROS is performed by spectrofluorimetry in the presence of specific fluorochromes directly on the monolayer cell. […]

MRC5 cells [2] = assay: TNF-α production by P. acnes-stimulated MRC5 (ELISA); settings: 0.87 to 7 μM
Experimental: as §1
(§2) Human IL-1ß, IL-8, IL-12, hBD-2, and TNF-α protein concentration was measured in the supernatants of stimulated cells using various ELISA Set kits (Ready-Set-Go kit from eBioscience for acne experiments, and for psoriasis experiments the Duo set IL-8 kit from R&D Systems and the BD-2 Human Development (hBD-2) from Peprotech) according to the manufacturer's instructions. We used serial dilutions of recombinant human IL-1ß, IL-8, IL-12 and TNF-α for standard curve. The optical density was determined at 450 nm at a wavelength correction of 540 nm.
(§3) To assess the efficacy of Fg1 recombinant peptide, the production of O2^∘− and H2O2 by HaCaT cells NHDK, THP-1, MRC5 and HDF stimulated by pretreated P. acnes strains 6919, RON and PIE was measured. The amount of ROS produced was compared to that produced by the stimulated cells with untreated bacteria. Production baseline was obtained by measuring ROS on unstimulated cells. The production of IL-1ß, IL-8, IL-12 and TNF-α was also measured in all conditions cited above. The measurement of the production of ROS is performed by spectrofluorimetry in the presence of specific fluorochromes directly on the monolayer cell. Measurement of cytokine production was performed in parallel on the cell culture supernatant.
(§4) Two sets of experiments were implemented: 1) The cells were stimulated (18 h at 37° C.) by P. acnes strains previously pretreated with Fg1 and Fg2 peptides at the final concentrations ranging from 0.87 to 7 μM for 1 h at 37° C.; and 2) The cells were pretreated first with Fg1 and Fg2 peptides at the final concentrations ranging from 0.87 to 7 μM for 24 h at 37° C. and stimulated (18 h at 37° C.) by P. acnes strains.

HDF cells = assay: TNF-α production by P. acnes-stimulated HDF (ELISA); settings: 0.87 to 7 μM
Experimental: as §1, §2, §3, §4

ThP1 cells = assay: TNF-α production by P. acnes-stimulated ThP1 (ELISA); settings: 0.87 to 7 μM
Experimental: as §1, §2, §3, §4

[3] = P. acnes 6919, set I, bacteria first pretreated
[4] = P. acnes 6919, set II, cells first pretreated
[5] = P. acnes PIE, set I, bacteria first pretreated
[6] = P. acnes PIE, set II, cells first pretreated
[7] = P. acnes RON, set I, bacteria first pretreated
[8] = P. acnes RON, set II, cells first pretreated

B1: MKRMVSWSFHKLKTMKHLLLLLLCVFLVKSQGVNDNEEGFFSARGHRPLDKKREEAPSLRPAPPPISGGGYRARPAKAAATQKKVERKAPDAGGCLHADPDLGVLC (protein)
chain: MKRMVSWSFHKLKTMKHLLLLLLCVFLVKSQGVNDNEEGFFSARGHRPLDKKREEAPSLRPAPPPISGGGRARPAKAAATQKKVERKAPDAGGCLHADPDLGVLCMKRMVSWSFHKLKTMKHLLLLLLCVFLVKSQGVNDNEEGFFSARGHRPLDKKREEAPSLRPAPPPISGGGYRARPAKAAATQKKVERKAPDAGGCLHADPDLGVLC
modifications: GST fusion; fragment Fg1
notes: fragment of Bß chain of human fibrinogen having 106 amino acids; recombinant GST-fused peptide expressed in E. coli
pos: Inhibition of Superoxide anion (O2°−) production (HaCaT cells; P. acnes 6919, set I) | Inhibition of Superoxide anion (O2°−) production (HaCaT cells; P. acnes PIE, set I) | Inhibition of Superoxide anion (O2°−) production (HaCaT cells; P. acnes RON, set I) | Inhibition of Superoxide anion (O2°−) production (MRC5 cells [1]; P. acnes 6919, set I) | Inhibition of Superoxide anion (O2°−) production (MRC5 cells [1]; P. acnes PIE, set I) | Inhibition of Superoxide anion (O2°−) production (MRC5 cells [1]; P. acnes RON, set I) | Inhibition of Interleukine TNF alpha (TNF-α) production (MRC5 cells [2]; [3]) | Inhibition of Interleukine TNF alpha (TNF-α) production (MRC5 cells [2]; [4]) | Inhibition of Interleukine TNF alpha (TNF-α) production (MRC5 cells [2]; [5]) | Inhibition of Interleukine TNF alpha (TNF-α) production (MRC5 cells [2]; [6]) | Inhibition of Interleukine TNF alpha (TNF-α) production (MRC5 cells [2]; [7]) | Inhibition of Interleukine TNF alpha (TNF-α) production (MRC5 cells [2]; [8]) | Inhibition of Interleukine TNF alpha (TNF-α) production (HDF cells; [3]) | Inhibition of Interleukine TNF alpha (TNF-α) production (HDF cells; [4]) | Inhibition of Interleukine TNF alpha (TNF-α) production (HDF cells; [5]) | Inhibition of Interleukine TNF alpha (TNF-α) production (HDF cells; [6]) | Inhibition of Interleukine TNF alpha (TNF-α) production (HDF cells; [7]) | Inhibition of Interleukine TNF alpha (TNF-α) production (HDF cells; [8]) | Inhibition of Interleukine TNF alpha (TNF-α) production (ThP1 cells; [3]) | Inhibition of Interleukine TNF alpha (TNF-α) production (ThP1 cells; [4]) | Inhibition of Interleukine TNF alpha (TNF-α) production (ThP1 cells; [5]) | Inhibition of Interleukine TNF alpha (TNF-α) production (ThP1 cells; [6]) | Inhibition of Interleukine TNF alpha (TNF-α) production (ThP1 cells; [7]) | Inhibition of Interleukine TNF alpha (TNF-α) production (ThP1 cells; [8])
